# Experiment: yeast display, Sf9 membrane polyspecificity reagent, FACS + sequencing; frameworks hold sequencing errors
# Procedure, shortened: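 Galactose induction of a Saccharomyces cerevisiae BJ5465 synthetic nanobody display library ran 36–48 hours. The cells were then stained for 1 hour at 4 °C with 10% biotinylated, detergent-solubilized Sf9 membrane reagent, pulled down on streptavidin microbeads and FACS-sorted into low and high (top ~1%) gates on expression and reagent-binding fluorescence. Labels for polyreactivity follow the gate of origin.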
row,Sequence,polyreactivity (PSR sort gate)
1,QVQLVESGGGLVQAGGSLRLSCAASGRIFRINAMGWYRQAPGKERELVASISRRGGNTYYADSVKGRFTISRDNAKNTVYLQMNSLKPEDTAVYYCAADTNQERTFDYWGQGTQVTVSS,low polyreactivity
2,QVQLVESGGGLVQAGGSLRLSCAASGRILWYNAMGWYRQAPGKERELVAAITSDGSTDYADSVKGRFTISRDNAKNTVYLQMNSLKPEDTAVYYCAKLYIRQYPTWYRYYYWGQGTQVTVSS,high polyreactivity
3,QVQLVESGGGLVQAGGSLRLSCAASGRIFSQYAMGWYRQAPGKERELVAAISSRGGRTYYADSVKGRFTISRDNAKNTVYLQMNSLKPEDTAVYYCAAVIRSRYSYYEYDYWGQGTQVTVSS,high polyreactivity
4,QVQLVESGGGLVQAGGSLRLSCAASGITFDEYAMGWYRQAPGKERELVAVISRSGGTTYYADSVKGRFTISRDNAKNTVYLQMNSLKPEDTAVYYCNARRWGPPGYYWGQGTQVTVSS,high polyreactivity
5,QVQLVESGGGLVQAGGSLRLSCADSGSTFYTNAMGWYRQAPGKERELVAAINRSGGRTYYADSVKGRFTISRDNAKNTVYLQMNSLKPEDPAVYYCAARYPVRFSTDTARDYYWGQGTQVTVSS,low polyreactivity
6,QLQLVESGGGLVQAGGSLRLSCAASGRIFQSYALGWYRQAPGKESELVAGIRAGGGRTYYADSVKGRFTISRDNAKNTVYLQMNSLKPEDTAVYYCATDFYPRYLLRTYRPYYYWGQGTQVTVSS,low polyreactivity
7,QVQLVESGGGLVQAGGSLRLSCAASGRIFLFYAMGWYRTAPGKERELVAGIRSGGSTNYADSVKGRFTISRDNAKNTVYLQMNSLKQEDTAVYYSAAASYFVYPRLEGYWGQGTQVTVSS,low polyreactivity
8,QVQLVESGGGLVQAGGSLRLSLAASGSIFARYAMGWYRQAPGKERELVAAITYTGGRTYYADSVKGRFTISSDYAKNTVYLKMNSLKPEDTAVFYCAKDGQATVRRGYDYWGQGTQVTVSS,high polyreactivity
9,QVQLVESGGGLVQAGGSLRLSCAASGSIFYFNAMGWYRQAPGKERELVAAISTSGGSTYADSVKGRFTISRDNAKNTVYLQMNSLKPEDTAVYYCAADYLTSRSRTFDYWGQGTQVTVSS,low polyreactivity
10,QVQLQESGGGLVQAGGSMRLSCAASGSISELRPMGWYRKAPGKERELVAGISTGGSTNYADSVKGRFTISRDNAKNTVYLQMNSQKPEDTAVYYCAAASYGEGTYDYWGQGTQVTVRS,high polyreactivity
11,QVQIVESGGGLVQAGGSLRLSCAASRIIFSTYAMGWYRQAPGKEREFVAAITSTGSTNYADSVKGRFTISRDNEKNTVYLQMNSLKPEDTAVYYCAARYAGPSPTDTGHDYWGQGTQVTVSS,low polyreactivity
12,QVQLVESGGGLVQAGGSLRLSCAASGGISSSNAMGGYRQAPGKERELVAGINSRGGSTYADSVKGRFTISRDNAKNTVYLQMKSLKPEDTAVYYCAAAPTYKWRRKNYDYWGQGTQVTVSS,high polyreactivity
13,QVQLVESGGGLVQAGGSLRLSCAASGSTFTQNTMGWYRQAPGKERELVAAISWSGTRTYYADSVKGRFTISRDNAKNTVYLQMNSLKPEDTAVYYCAARTHVPAEYDYWGQGTQVTVSS,high polyreactivity
14,QVQLVESGGGLVQAGGSLRLSCAASGSTLYWYAMGWYRQAPGKERELVASISWSGGSTYYADSVKGRFTISRDNAKITVYLQMNSLKPEDTAVYYCDAVRHYHGTWYDYWGEGTQVTVSS,high polyreactivity
15,QVQLVESGGGLVQAGGSLRLSCAASGSIFLYYTMGWYRQAPGKEREMVAAITSGSSTNYADSVKGRFTISRDNAKNTVYLQMNSLKPEDTAVYYCATQYTLSYPSIDFDYWGQGTQVNVSS,low polyreactivity
16,QVQLVESGGGLVQAGGSLRLSCAASGSIFPLYAMGWYRQAPGKERELVAAITSNGGRTYYADSVKGRFTISRDNAKNTVYLQMNSLKPEDTAVYYCNKYLLDYRRGRSDYWGQGTQVTVSS,low polyreactivity
17,QVQLVESGGGLVQAGGSLSLSCAASGITFIHNAMGLYIQAPGKERELVAAITPSDGSTYYADSVKGRFTISRDNAKNTVFLQMNSLKPEDTAVYYCAARGRHSGYYSVPYYYWGQGTQVTVSS,low polyreactivity
18,QVQLVESGGGLVQAGGTLRLSCAASGRIFGYNDMGWYRQAPGKERELVAAINRTGGSTYYADSVKGRFTISRDNAKNTVYLQMNSLKPEDTAVYYCNADARTKWVQTHTDFITDYDYWGQGTQVTVSS,low polyreactivity
19,QVQLVESGGGLVQAGGSLRLSCAASGSTFYPNAMGWYRQAPGKERELVAAITDSVGTTNYADSVKGRFTISRDNAKNTVYLQMNSLKPEDTAVYYCAKVKSYWNGYRYYYWGQGTQVTVSS,low polyreactivity
20,QVQLVESVGGLVQAGGSLRLSCDASGRIFVKYAMGGSRQAPGKERELVASITSGGRTNYADSVKGRFTISRDNAKNTVYLQMNSLKPEDTAVYYCAADARQSRYNYWGQGTQVTVSS,high polyreactivity
21,QVQLVESGGGLVQAGGSLRLSCAASGLTLYGYTMGWYRQAPGKERELGATITTGGDYTYYADSVKGRFTISRDNAKNTVYLQMNRLKPVDTAVYYCAAYSYGWDYSYDYWGQVTQVTVSS,low polyreactivity
22,QVQLVESGGGLVQAGGSLRLSCAASGLTFTINAMGWYRQAPGKERELVAAITGNNTSTYYADSVKGRFTISRDNAKNTVYLQMNSLKPEDTAVYYCAASVYHYGPLYYWGQGTQVTVSS,low polyreactivity

row,Sequence,polyreactivity (PSR sort gate)
1,QDQLVESGGGLVQAGGSLRLSCAASGITVDGYAMGWYRQAPGKDRELVAAITTSGGRTYYADSVKGRFTISRDNAKNTVYLQMNSLKPEHTADYYCNAVRGGRYGLDYWGQGTQVTVSS,high polyreactivity
2,QVQLVESGGGLFKAGGSLRLSCAASGLIFWGYTMAWSRQAPGKERELVAAISRRGGRTYYAASVMGRFTISRDNAKNTVYLQMNTLKPEDTAVDYCKADITSSGPKSDYWGQGTQVTVSS,high polyreactivity
3,QVQLVESGGGLVQAGGSLRLSCAASGITFGRNTKGWYRQAPGKERELVAAIDSGGNTYADSVKGRFTISRDNAKNTVYLQMNSLKPEDTAVYYCAADSYPAYLGFVGFDYWVQGTQVTVSS,low polyreactivity
4,QVQLVESGGGLVQAGGSLRLSCAASGSIFTFYALGWYRQAPGQERELVAAISYSGGSTYYADSVTGRFTISRDNAKITVYLQMNSLKPEDTAVFYCARDYFVDGPGYDYWGQGTQVTVSS,low polyreactivity
5,QVQLVESGGGLVQAGGSLRLSCAASGFTFRYYAMGWYRQAPGKEREFVAAIRSSGTTTSYADSVKGRFTISRDNEKNTVYLQMNSLKPEDTAVYYCAAGYFGPQQYYYWGQGTQVTVSS,high polyreactivity
6,QVQLVESGGGLVQAGGSLRLSCAASGITFTGYAMGWYRQAPGKERELVAVISETGGSTYADSVKGRFTISRDNAKNTVYLQMNSLKPEDTAVYYCAARLWWPYSTAWAKMDYWGQGTQVTVSS,low polyreactivity
7,QVQLVESGGGLVQAGGSLRLSCAASGITLGRYAMGWYRQAPGKERELVAAISWSGGTTYYADSVKGRFTISRDTAKNTVDLQMNSLKPEDTAGYYCTKESPYRQWGWSYYYWGQGTQVTVSS,high polyreactivity
8,QVQLVESGGGLVQAGGSLRLSCAASGRTFAAYDMGWYRQAPGKERELVAAITSGGSTNYADSVKGRFTISRDNAKNTVYLQMNSLKPEDTAVYYCNARFRKWPQARYGVRYYYWGQGTQVTVSS,high polyreactivity
9,QVQLVESGGGIVQACGSLRLSCAASGFTFYVYAMGWYRKAPGKEREFVAAISKSGGRTYYADSVMGRFTISRDNAKNTVYLQMNSLKPEDTAVYYCGRYNRYQIIYPGFDYWGQGTQVTVSS,high polyreactivity
10,QVQLVESGGGLVQAGGSLRLSCAASGIIFYYYAMGWYRQAPGKERELVAGISYSGGSTYADSVKGRFTISRDNAKNTVYLQMNSLKPEDTAVYYCASDYDYGGHWYDYWGQGTQVTVSS,low polyreactivity
11,QVQLVESGGGLVQAGGSLRLSCAASGGTFYRYAMGWYRQAPGKERELVAVISKRGGTTYYADSVKGRFTISRDNAKITVYLQMNSLKPEDTAVYYCADRPYYWGQGTQVTVSS,high polyreactivity
12,QVQLVESGGALVQAGGSLRFSCASSGRIFSSNTMGWYRQAPGKERELVAAISRGSITYYAHSVKGRFTISRDNAKNTVYLQMNSLKPEDTAVYYCAAGVGLDNYGYGYWGQGTQVTVSS,low polyreactivity
13,QVQIVESGGGLVQAGGSLPLSCAASGFIYNYNAMGWYRQAPRKERELVAAISTSGSSTYYADSVKGRFTISRDTPKNTVYLQMNSLKPEVTAVYYCARYRVARGEGGWLYDYWGQGTQVTVSS,high polyreactivity
14,QVQLVESGGGLVHAGGSLRLSCAASGITFYDYDMGWYRQAPGKERELVATITSGGDTNYADSVKGRITISRDNAKNTVYLQMNSLKPEDTAVYYCAAGSFFRDSYARIYRWFYYWGQGTQVTVSS,low polyreactivity
15,QVQLVESGGGLVQAGGSLRLSCAASGFIFQEYVMGWYRQAPGKERELVAAISRSGGRTYYADSVKGRFTISRDNAKNTVYLQMNSLKPEDTAVYYCAATYTKSHGVRYYHWGQGTQVTVSS,high polyreactivity
16,QVQLVESGGGLDQAVGSLPLSCAASGRTFYLNTRGWYREAPWKEREFVAAISATAGRTYYADSVKGRFTISRDNAKNTVYLQMYSLKPEDTAVYYCAAVPLRIRWPNSSPALDYWGQGTQVTVSS,high polyreactivity
17,QGQLVESGGGLVQAGGSLRLSCAASGITFPGYAMGWSRQAPGKERELVAVIRKSGTSTYYADSVKGRFTISRDNEKNTVYLQMNSLKPEDTAVYYCADGGPSTVDVYWGQGTQVTVSS,low polyreactivity
18,QVQLVESGGGLVQAGGSLRLSCAASGYTFPQYAMGWYRQAPGKERELVAAITRRGGSTYYADSVKGRFTISRDNAKNTVYLQMNSLKPEDSAVYNCAADSYPYSHGGDYWGQGTQVTVSS,high polyreactivity
19,QVQLVESGGGLVQAGGSLRLSCAASGLIFWAYAMGWYRQAPGKERELVAAISWSGARTYYADSVKGRFTISRDNAKNTVYLQMNSLKPEDTAVYYCAAGVSSSSSGYEGDYWGQGTQVTVSS,high polyreactivity
20,QVQLVESGGGLVQAGGSLRISCAASGFIFGWYAMGWYRQAPGKERELVAVIRSGGRTNYADSVKGRFTISRDNAKNTVYLQMNSLKPEDTAVYYCNAVGGRGYGGGYWGQGTQVTVSS,high polyreactivity
21,QVQLVESGGGLVQAGGSLRLICAASGFTFFAYAMGWYRQAPGKERELVAGISRSGGRTYYADSVKGRFTISRDNAKNTVYLQMNSLKPEDTAVYYCAAGIPVTSRFYGMDWGQGTQVTVSS,high polyreactivity
